Usually IC50 stands for the point on the concentration scale where inhibition reaches its midpoint. Low values mean higher potency, high ones lower potency.

Test [1] deals with IgE antibodies of the individual allergic patient serum II/17. Description: EAST inhibition, individual serum II/17.
The target in test [2] is specific IgE on basophils from the blood of allergic patient. In words: cell-based or functional assay.
For test [3], the target named is IgE antibodies of the individual allergic patient serum II/12. In words: EAST inhibition, individual serum II/12.
Test [4] has as its target IgE antibodies of the individual allergic patient serum II/3. Description: EAST inhibition, individual serum II/3.
The target of test [5] is IgE antibodies of the allergic patient serum pool Bor 18/100 (20 donors). In words: EAST inhibition, serum pool Bor 18/100.
Test [6] deals with IgE antibodies of the allergic patient serum pool We 6/97. Description: EAST inhibition, serum pool We 6/97.

B1: rPhl p 5b deletion mutant DM2 (deletion F51-G178, D49L, K50A) (protein)
chain: ADAGYAPATPAAAGAAAGKATTEEQKLIEDINVGFKAAVAAAASVPAALAGAYDTYKCIPSLEAAVKQAYAATVAAAPQVKYAVFEAALTKAITAMSEVQKVSQPATGAATVAAGAATTAAGAASGAATVAAGGYKV
In test [1], B1 registered an allergenic potency (Prel) at 25% inhibition (relative to native Phl p 5b) of 2.9e-12. In addition, the concentration required to bring about a 30% histamine release from basophils, against wild type rPh1 p 5b in test [2] was determined as 500 fold higher.

B2: natural Phl p 5b, purified by affinity chromatography (protein)
chain: ADAGYAPATPAAAGAAAGKATTEEQKLIEDINVGFKAAVAAAASVPAADKFKTFEAAFTSSSKAAAAKAPGLVPKLDAAYSVAYKAAVGATPEAKFDSFVASLTEALRVIAGALEVHAVKPVTEEPGMAKIPAGELQIIDKIDAAFKVAATAAATAPADDKFTVFEAAFNKAIKESTGGAYDTYKCIPSLEAAVKQAYAATVAAAPQVKYAVFEAALTKAITAMSEVQKVSQPATGAATVAAGAATTAAGAASGAATVAAGGYKV
With B2, the IC50 in test [1] turned out to be 2.6 nM; in test [3] it was 6.8 nM; in test [4], 5.9 nM; in test [5] it was 4.2 nM; in test [6], 6.1 nM. In addition, the allergenic potency (Prel) at 25% inhibition (relative to native Phl p 5b) in test [1], in test [3], in test [4], in test [5] and in test [6] was 1 throughout. Moreover, the allergenic potency (Prel) at 50% inhibition (relative to native Phl p 5b) in test [1], in test [3], in test [4], in test [5] and in test [6] was 1 throughout. Also, the inhibition value (inhibitor concentration at 25% inhibition) in test [1] is 2.2e-10 mol/L; in test [3], 5.2e-10 mol/L; in test [4], 5.1e-10 mol/L; in test [5], 3.3e-10 mol/L; in test [6], 5.1e-10 mol/L.

B3: recombinant Phl p 5b (wild type) (protein)
chain: B2 chain
On to B3, for which the IC50 in test [1] was determined as 4.7 nM; in test [3], 73 nM; in test [4], 14 nM; in test [5], 5 nM; in test [6], 1400 nM. Moreover, the allergenic potency (Prel) at 25% inhibition (relative to native Phl p 5b) came to 1.04 in test [1]; 0.597 in test [3]; 0.903 in test [4]; 1.71 in test [5]; 1.7 in test [6]. Further, the allergenic potency (Prel) at 50% inhibition (relative to native Phl p 5b) in test [1] is 0.545; in test [3], 0.093; in test [4], 0.419; in test [5] it was 0.841; in test [6], 0.44. For the same molecule, the inhibition value (inhibitor concentration at 25% inhibition) in test [1] turned out to be 2.1e-10 mol/L; in test [3] it was 8.7e-10 mol/L; in test [4], 5.6e-10 mol/L; in test [5], 2e-10 mol/L; in test [6], 3e-10 mol/L.

Source of the values: patent US6919086B1, “Graminae pollen allergen mutants for specific immunotherapy, and production and use of the same” (Merck Patent Gesellschaft mit, priority 1997, dated 2005).
